Fraction ligated data for 34 variants are collected here from the supplement of paper PMC6755084.

The chains are these.
B1: F1*; the commonest letter at each place (parent)
chain: GAGACCGCAACTGAAAAGTTGTTATCACTTGTCGTAAGACACTTTGGATGGGTTGAAGTTCTGCACGTAGAAGCAAAAGGC

The variants in the data set derive from B1. Put plainly: fraction ligated after 30 min (ligated reads / total reads); higher = more ligase activity. The settings on record: with F1*sub RNA substrate (template-directed ligation), 42 °C. A digest of the protocol:
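Oligo-pool templates underwent PCR amplification, T7 transcription and gel purification to yield ribozyme variants. Gel-separated ligated and unligated bands were converted to complementary DNA with barcoded primers and sequenced on a MiSeq, keeping core bases of quality ≥20. The ratio of ligated reads to total reads gave the fraction ligated for every variant.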
For GAGACCGCAACTGAAAAGTTGTTATCACTGGTCGTAAGACACCTTGGATGGGTTGAAGTTCTGCACGTAGAAGCAAAAGGC, the fraction ligated turned out to be 0.794. As for GAGACCGCAACTGAAAAGTTGTTATCACTGGTCGTAAGACACGTTGGATGGGTTGAAGTTCTGCACGTAGAAGCAAAAGGC, the figure is 0.795; as for GAGACCGCAACTGAAAAGTTGTTATCACTGGTCGTAAGAGACTTTGGATGGGTTGAAGTTCTGCACGTAGAAGCAAAAGGC, 0.81.

As to GAGACCGCAACTGAAAAGTTGTTATCACTGGTCGTAAGAAACTTTGGATGGGTTGAAGTTCTGCACGTAGAAGCAAAAGGC, the fraction ligated came to 0.854. As for GAGACCGCAACTGAAAAGTTGTTATCACTGGTCGTAAGATACTTTGGATGGGTTGAAGTTCTGCACGTAGAAGCAAAAGGC, the fraction ligated came out at 0.819.

As to GAGACCGCAACTGAAAAGTTGTTATCACTGGTCGTAAGACACTTTAGATGGGTTGAAGTTCTGCACGTAGAAGCAAAAGGC, the fraction ligated came to 0.791. As for GAGACCGCAACTGAAAAGTTGTTATCACTGGTCGTAAGACACTTTCGATGGGTTGAAGTTCTGCACGTAGAAGCAAAAGGC, the figure is 0.776. As for GAGACCGCAACTGAAAAGTTGTTATCACTGGTCGTAAGACACTTTTGATGGGTTGAAGTTCTGCACGTAGAAGCAAAAGGC, the figure is 0.785; as for GAGACCGCAACTGAAAAGTTGTTATCACTGCGCGTAAGCGCCTTTGGATGGGTTGAAGTTCTGCACGTAGAAGCAAAAGGC, 0.85. As for GAGACCGCAACTGAAAAGTTGTTATCACTGGTCGTAAGACACTTTGGATCGGTTGAAGTTCTGCACGTAGAAGCAAAAGGC, the figure is 0.342; as for GAGACCGCAACTGAAAAGTTGTTATCACTGGTCGTAAGACACTTTGGATTGGTTGAAGTTCTGCACGTAGAAGCAAAAGGC, 0.712. Regarding GAGACCGCAACTGAAAAGTTGTTATCACTGGTCGTAAGACACTTTGGATAGGTTGAAGTTCTGCACGTAGAAGCAAAAGGC, the fraction ligated is 0.513. Take GAGACCGCAACTGAAAAGTTGTTATCACTGGTCGTAATACACTTTGGATGGGTTGAAGTTCTGCACGTAGAAGCAAAAGGC: the fraction ligated stood at 0.816.

Consider GAGACCGCAACTGAAAAGTTGTTATCACTGGTCGTAAAACACTTTGGATGGGTTGAAGTTCTGCACGTAGAAGCAAAAGGC, for which the fraction ligated was found to be 0.843.

Regarding GAGACCGCAACTGAAAAGTTGTTATCACTGGTCGTAACACACTTTGGATGGGTTGAAGTTCTGCACGTAGAAGCAAAAGGC, the fraction ligated was 0.805.

As for GAGACCGCAACTGAAAAGTTGTTATCACTGGTTGTAAGACACTTTGGATGGGTTGAAGTTCTGCACGTAGAAGCAAAAGGC, the fraction ligated turned out to be 0.867.

Take GAGACCGCAACTGAAAAGTTGTTATCACTGGTAGTAAGACACTTTGGATGGGTTGAAGTTCTGCACGTAGAAGCAAAAGGC: the fraction ligated was 0.86.

Consider GAGACCGCAACTGAAAAGTTGTTATCACTGGTGGTAAGACACTTTGGATGGGTTGAAGTTCTGCACGTAGAAGCAAAAGGC, for which the fraction ligated worked out at 0.854. Consider GAGACCGCAACTGAAAAGTTGTTATCACTGGTCGTAAGACACTTTGGTTGGGTTGAAGTTCTGCACGTAGAAGCAAAAGGC, for which the fraction ligated turned out to be 0.796. As to GAGACCGCAACTGAAAAGTTGTTATCACTGGTCGTAAGACACTTGGGATGGGTTGAAGTTCTGCACGTAGAAGCAAAAGGC, the fraction ligated was 0.46.

For GAGACCGCAACTGAAAAGTTGTTATCACTGGTCGTAAGACACTTCGGATGGGTTGAAGTTCTGCACGTAGAAGCAAAAGGC, the fraction ligated stood at 0.803.

For GAGACCGCAACTGAAAAGTTGTTATCACTGGTCGTAAGACACTTAGGATGGGTTGAAGTTCTGCACGTAGAAGCAAAAGGC, the fraction ligated came to 0.76. As for GAGACCGCAACTGAAAAGTTGTTATCACTGCCGGTAACGGCCTTTGGATGGGTTGAAGTTCTGCACGTAGAAGCAAAAGGC, the figure is 0.797; as for GAGACCGCAACTGAAAAGTTGTTATCACTGGCGGTAACGCCCTTTGGATGGGTTGAAGTTCTGCACGTAGAAGCAAAAGGC, 0.835. As for GAGACCGCAACTGAAAAGTTGTTATCACTGCCCGTAAGGGCCTTTGGATGGGTTGAAGTTCTGCACGTAGAAGCAAAAGGC, the figure is 0.846; as for GAGACCGCAACTGAAAAGTTGTTATCACTGGTCGCAAGACACTTTGGATGGGTTGAAGTTCTGCACGTAGAAGCAAAAGGC, 0.813. Turning to GAGACCGCAACTGAAAAGTTGTTATCACTGGTCGAAAGACACTTTGGATGGGTTGAAGTTCTGCACGTAGAAGCAAAAGGC, the fraction ligated is 0.845. As for GAGACCGCAACTGAAAAGTTGTTATCACTGGTCGGAAGACACTTTGGATGGGTTGAAGTTCTGCACGTAGAAGCAAAAGGC, the figure is 0.847. As for GAGACCGCAACTGAAAAGTTGTTATCACTGGGCGTAAGCCCCTTTGGATGGGTTGAAGTTCTGCACGTAGAAGCAAAAGGC, the figure is 0.845; as for GAGACCGCAACTGAAAAGTTGTTATCACTGGTCATAAGACACTTTGGATGGGTTGAAGTTCTGCACGTAGAAGCAAAAGGC, 0.825. As for GAGACCGCAACTGAAAAGTTGTTATCACTGGTCCTAAGACACTTTGGATGGGTTGAAGTTCTGCACGTAGAAGCAAAAGGC, the figure is 0.795; as for GAGACCGCAACTGAAAAGTTGTTATCACTGGTCTTAAGACACTTTGGATGGGTTGAAGTTCTGCACGTAGAAGCAAAAGGC, 0.796; as for GAGACCGCAACTGAAAAGTTGTTATCACTGCGGGTAACCGCCTTTGGATGGGTTGAAGTTCTGCACGTAGAAGCAAAAGGC, 0.828.

For the variant GAGACCGCAACTGAAAAGTTGTTATCACTTATCGTAAGACACTTTGGATGGGTTGAAGTTCTGCACGTAGAAGCAAAAGGC, the fraction ligated is 0.812.
